{"source": "paper PMC8567204", "origin": "cited, not measured here", "key": {"[1]": {"biological_target": "Trigger factor (Escherichia coli) (UniProt P0A850)"}, "Fyn (unfolded) SH3": {"biological_target": "Fyn (unfolded) SH3 (UniProt P06241)", "sequence (P06241 82-143)": "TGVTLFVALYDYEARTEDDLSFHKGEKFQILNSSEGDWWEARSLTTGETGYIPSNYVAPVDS"}, "Fyn (native) SH3": {"biological_target": "Fyn (native) SH3 (UniProt P06241)", "sequence (P06241 82-143)": "as above"}, "HscA (Escherichia coli) [2]": {"biological_target": "HscA (Escherichia coli) (UniProt P0A6Z1)", "sequence (P0A6Z1 whole entry)": "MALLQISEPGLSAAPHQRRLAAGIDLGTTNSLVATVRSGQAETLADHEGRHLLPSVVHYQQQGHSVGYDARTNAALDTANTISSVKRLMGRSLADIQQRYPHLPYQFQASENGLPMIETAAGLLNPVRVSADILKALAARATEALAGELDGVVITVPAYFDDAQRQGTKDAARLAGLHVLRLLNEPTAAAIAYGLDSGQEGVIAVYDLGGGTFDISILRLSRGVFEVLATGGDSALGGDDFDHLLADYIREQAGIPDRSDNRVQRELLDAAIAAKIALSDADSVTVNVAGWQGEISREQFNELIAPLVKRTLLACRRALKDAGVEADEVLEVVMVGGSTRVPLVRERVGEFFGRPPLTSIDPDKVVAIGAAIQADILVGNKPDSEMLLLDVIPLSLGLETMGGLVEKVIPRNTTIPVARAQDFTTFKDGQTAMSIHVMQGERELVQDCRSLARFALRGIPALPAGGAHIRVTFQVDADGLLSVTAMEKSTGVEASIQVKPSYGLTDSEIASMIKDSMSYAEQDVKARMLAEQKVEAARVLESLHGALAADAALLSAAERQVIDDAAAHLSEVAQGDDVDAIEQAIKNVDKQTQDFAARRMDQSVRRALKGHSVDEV"}, "HscB (Escherichia coli)": {"biological_target": "HscB (Escherichia coli) (UniProt P0A6L9)", "sequence (P0A6L9 whole entry)": "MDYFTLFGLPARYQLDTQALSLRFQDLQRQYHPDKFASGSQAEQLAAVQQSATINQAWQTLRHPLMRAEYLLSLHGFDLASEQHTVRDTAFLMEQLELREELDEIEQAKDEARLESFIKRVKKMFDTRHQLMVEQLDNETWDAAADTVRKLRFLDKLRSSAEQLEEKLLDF"}, "HscA (Escherichia coli) [3]": {"biological_target": "HscA (Escherichia coli) (UniProt P0A6Z1)", "remark": "listed apart in the source"}}, "note": "Read-outs that look alike come from different tables or passages of the source.", "data": [{"substance": "Trigger factor (from UniProt P0A850)", "values": [{"measurement": "Kd", "setting": "[1]", "result": 2, "unit": "µM"}]}, {"substance": "Spy (from UniProt P77754)", "values": [{"measurement": "Kd", "setting": "Fyn (unfolded) SH3", "result": 3, "unit": "µM"}, {"measurement": "Kd", "setting": "Fyn (native) SH3", "result": 50, "unit": "µM"}]}, {"substance": "apo-IscU (from UniProt P0ACD4)", "values": [{"measurement": "Kd", "setting": "HscA (Escherichia coli) [2]", "result": 9, "unit": "µM"}, {"measurement": "Kd", "setting": "HscB (Escherichia coli)", "result": 11, "unit": "µM"}, {"measurement": "Kd", "setting": "HscA (Escherichia coli) [3]", "result": 37, "unit": "µM"}]}]}
